Data published in article PMC6595629, “Continuous Culture Adaptation of Methylobacterium extorquens AM1 and TK 0001 to Very High Methanol Concentrations” (Frontiers in Microbiology, 2019).

Columns and labels:
[1] = biological target: T1, MetY (O-acetyl-L-homoserine sulfhydrylase) (Methylorubrum extorquens, UniProt C5ARH8); test: coupled acetic acid assay (NADH oxidation, […] nm); assay type: biochemical; conditions: pH 7.4, room temperature; co-substrate O-acetyl-L-homoserine saturating
T1 construct: full-length, N-terminal 6xHis tag, modified pET22b(+), E. coli BL21(DE3), purified; printed primers translate to N-terminus MHHHHHHSDQTPASVY and C-terminus TLARAA

purified protein = substrate: CC(=O)OCC[C@H](N)C(=O)O; test: purified protein; assay type: biochemical, Methylorubrum extorquens; conditions: pH 7.4, room temperature, other substrate saturating (sulfide or methanol; which one is not given)

## S [Sodium sulfide]
[1]
  Km: 800 ± 200 µM

B1: MetY (O-acetyl-L-homoserine sulfhydrylase) (Methylorubrum extorquens AM1) (protein)
chain: MTDRQPGFNTLAIHAGATPDPATGARATPIYQTTSFVFDDVDHAASLFGLQAFGNIYTRITNPTNAVLEERIAALEGGTAALAVASGHAAEFLTLHALMQPGDEFIAANKLYGGSINQFNHSYKNFGWQVVWADTDDPDSFERAITPRTKAIFCESIANPGGVITDIAALSVIAKRHNIPLIVDNTMATPYLIKPFEHGADIVVHSATKFLGGHGNSIGGLIVDGGTFQWQGDARYPMLSEPRPEYAGMVLAETFGNFGFAIAVRVLSLRDLGPSLSPFNAFLILNGIETLPLRMQRHSDNALKVATFLKNHANVDWVSYPGLESDRYHALAQRYTPKGAGAVFTFGLKGGYEAGVKLVSNLQLFSHLANIGDTRSLVIHPASTTHRQLTDEQKRAAGAGPEVVRLSIGIEDAQDLIDDLDAALRA
notes: full-length, N-terminal 6xHis tag, modified pET22b(+), E. coli BL21(DE3), purified; printed primers translate to N-terminus … and C-terminus TLARAA
Purified protein
  Km: 1300 ± 200 µM
  kcat: 2.32 ± 0.12 s⁻¹
  kcat/Km: 1850 M⁻¹ s⁻¹
